# ChEMBL document CHEMBL1156111, “Identification of the amino acid-AZT-phosphoramidase by affinity T7 phage display selection” (Bioorg Med Chem Lett, 2009)
# Substrate: Cc1cn([C@H]2C[C@H](N=[N+]=[N-])[C@@H](COP(=O)(O)NCc3c[nH]c4ccccc34)O2)c(=O)[nH]c1=O
# Assay: Hydrolysis activity of human HINT1 at pH 7.2 by continuous fluorescence assay
protein,measurement,value
"Adenosine 5'-monophosphoramidase HINT1 (Homo sapiens), P49773 (protein) MADEIAKAQVARPGGDTIFGKIIRKEIPAKIIFEDDRCLAFHDISPQAPTHFLVIPKKHISQISVAEDDDESLLGHLMIVGKKCAADLGLNKGYRMVVNEGSDGGQSVYHVHLHVLGGRQMHWPPG",Km,981 µM
